Measured values: the supplement of paper PMC10567573

B1: CDC14A (parent)
chain: GPHPKSKIENGYPLHAPEAYFPYF
B2: PPFIA4 (parent)
chain: PGVHRRYSALREESAKDWETSPLP

Variants of: B1
Assay: protein stability index of a GFP-peptide fusion (GPS, HEK-293T) (PSI 1-6); higher = more stable
Conditions: c terminus: a fixed tail appended
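Note: lentivirally expressed fusions sorted by FACS into six bins by GFP to DsRed ratio, PSI derived from sequencing read proportions per bin multiplied by bin number.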

Protein stability index: each site, then its substitutions
E9: A 1.92; D 1.96; M 1.58; L 1.76; N 1.91; I 2.2; Y 1.64; K 1.44; R 1.6; C 2.09; H 2.29
P13: F 1.92; W 1.58; G 2.39; Q 2.43; M 1.68; K 1.88; L 1.95; T 1.96; I 1.43
H3: C 2.01; F 2.02; Q 2.7; T 1.91; R 2.19; V 2.41; S 2.55; L 2.19
K7: T 2.43; S 2.31; I 1.98; Y 1.84; D 2.13; L 2.06; H 2.22; V 2.59; F 1.99
F21: G 2.8; N 2.91; D 3.55; A 3; L 2.17; H 2.47; S 2.96; Y 2.44; V 2.9
S6: F 2.11; Y 1.82; W 1.88; A 2.36; T 2.15; R 2.2; G 2.14; I 2.01; N 2.21; E 2.3; P 2; V 2.16
F24: C 2.66; V 2.75; I 2.92; M 2.23; T 3.41; A 3.43; E 3.61; D 3.37
Y23: T 3; Q 3.24; I 2.4; R 2.97; C 2.77; D 3.92; F 2.23; G 3.21; L 1.95; E 3.4
L14: I 2.27; R 2.51; G 2.65; D 2.59; F 2.02; M 2.41; C 1.67; A 2.46
Y12: D 3.24; Q 2.7; F 1.78; M 2.74; T 3.07; W 1.86; A 2.99; G 2.67; C 2.42
P17: Q 2.14; G 2.48; H 1.84; F 1.87
A16: K 2.12; R 2.35; I 2.04; E 2.4; C 2.84; L 1.95; N 2.25; G 2.77
A19: M 2.97; T 2.39; Q 2.48; L 1.98; N 2.71; W 1.87; R 1.78; K 2.51; G 2.22
H15: P 2.57; I 1.87; N 2.37; K 2.7; A 2.45; D 2.63
G1: H 2.08; I 1.85; T 2.7; V 1.89; E 2.44; S 1.99; F 2.01; K 1.57; Y 1.51; M 2.51
P4: K 2.29; Y 1.89; T 2; E 2.11; D 2.12; N 2.48; A 2.52; G 2.22; M 2.33
Y20: W 2.19; K 2.79; F 1.89; Q 2.55; M 2.71; L 3.1
K5: T 2.13; N 2.07; G 1.99; W 1.92; E 2.5; C 2.23; A 2.26; L 2.37; I 2.06; Q 2.77; D 2.08
N10: S 2.97; K 2.65; Q 2.99
I8: F 2.23; T 2.48; V 2.48; H 2.37; A 2.54; G 2.28; E 3.29; R 2.75
P22: S 1.98; Q 2.47; V 2.19
P2: I 2.28; K 1.94; A 2.35; S 2.33; Y 1.85; F 2.8; Q 2.14; D 2.29
G11: C 1.73; P 3.76; E 2.52; T 1.75; Q 2.31; I 1.64; A 2.41; M 2.09; N 2.07
E18: M 1.45; K 2.23; L 2.03; I 1.95; D 2.62; W 1.56; A 2.61; Y 2.22; G 2.3

Variants of: B2
Assay: as above
Conditions: c terminus: a fixed tail appended

Protein stability index, by site and new letter:
D17: C 3.53; Q 3.39; S 4.16; N 3.98; V 3.86; I 3.33; K 3.36; T 3.31; P 3.04; Y 2.72; L 2.89; A 3.29; G 3.9; R 3.34; W 1.97
E19: C 3; R 3.55; D 4.03; V 3.24; H 3.41; N 3.42; I 3.41; M 2.93; S 3.17; F 2.4; Q 4.18; A 2.97; L 3.97; T 3.96; W 2.41; P 3.59; K 3.68; Y 2.37
S21: C 3.88; L 3.6; M 3.67; E 4.5; A 4.93; Q 4.24; G 3.25; V 3.76; H 3.42; N 5.33; P 4.08; K 3.98; W 4.24; Y 3.2; F 3.34; D 5.1; T 4.07; I 3.39; R 4.03
L23: K 5.38; A 4.67; F 4.27; D 4.55; S 4.56; H 4.53; E 3.3; Y 3.87; M 4.79; N 5; I 4.26; V 2.13; Q 4.37; R 4.25
W18: C 5.36; H 5.23; Y 4.73; P 5.21; N 5.29; E 5.15; F 4.4; D 5.58; I 4.81; T 5.24; Q 4.77; G 5.21; V 4.67; M 5.08; K 4.7; R 4.42; A 4.95; L 4.96
T20: V 2.73; W 2.3; D 5.09; G 4.55; Y 3.46; H 4.47; S 4.83; E 4.62; M 4.37; C 3.75; L 3.36; F 2.71; K 4.17; A 4.05; R 3.66; N 4.55; P 4.6; Q 4.49
K16: V 4.2; R 3.99; T 4.5; S 4.13
P24: Q 3.45; C 4.22; T 4.04; E 4.71; M 3.97; I 3.87; H 3.19; N 4.43; Y 3.45; G 4.25; D 4.59; L 3.62; S 3.83; V 4.15; K 4.6; F 3.59
P22: T 3.04; C 4.02; E 4.94; L 3.67; I 3.48; K 4.23; F 3.19; S 4.31; A 4.11; D 4.63; N 4.52; V 3.68; Y 3.3; R 3.18; Q 4.63; H 4.28
